± gives the uncertainty stated by the source.
Test: self-splicing fitness, log relative to wild type (ln ratio); higher = more splicing; Tetrahymena group I intron in knt gene, E. coli kanamycin selection, DiMSum; sequences stand for … in CUCUCU…GGAGGGAAAAGUUAUCAGGCAUGCACCUGGUAGCUAGUCUUUAAACCAAUAGAUUGCAUCGGUUUAAAAGGCAAGACCGUCAAAUUGCGGGAAAGGGGUCAACAGCCGUUCAGUACCAAGUCUCAGGGGAAACUUUGAGAUGGCCUUGCAAAGGGUAUGGUAAUAAGCUGACGGACAUGGUCCUAACCACGCAGCCAAGUCCUAAGUCAACAGAUCUUCUGUUGAUAUGGAUGCAGUUCACAGACUAAAUGUCGGUCGGGGAAGAUGUAUUCUUCUCAUAAGAUAUAGUCGGACCUCUCCUUAAUGGGAGCUAGCGGAUGAAGUGAUGCAACACUGGAGCCGCUGGGAACUAAUUUGUAUGCGAAAGUAUAUUGAUUAGUUUUGGAGUACUCGUGGUCG
Procedure, shortened: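 Pooled colonies went to amplicon sequencing on an Illumina HiSeq 2500 after six replicate transformations. The plates were LB agar with 100 μg/mL carbenicillin, 50 μM IPTG and 0.2% rhamnose, with or without 25 μg/mL kanamycin, incubated overnight at 37°C or 30°C. The E. coli BL21(DE3) library had all eight P1ex-region intron nucleotides randomised, the intron placed in the knt kanamycin-resistance gene on pET-22b(+). DiMSum fitness is the error-weighted combination of replicate fold changes, kanamycin against none, normalised to wild type.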

| Sequence | self-splicing fitness (ln) (30 °C) | self-splicing fitness (ln) (37 °C) |
| --- | --- | --- |
| AAAAAGCAAUAUUACGAACA | -0.675 ± 0.092 | -0.407 ± 0.11 |
| AAAAAGCAAUAUUACGACCU | 0.273 ± 0.072 | 0.617 ± 0.089 |
| AAAAAGCAAUAUUACGACGU | 0.102 ± 0.054 | 0.768 ± 0.067 |
| AAAAAGCAAUAUUACGAGUG | -1.35 ± 0.088 | -1.18 ± 0.09 |
| AAAAAGCAAUAUUACGAUAU | -0.534 ± 0.061 | -0.545 ± 0.079 |
| AAAAAGCAAUAUUACGCAUU | -2.5 ± 0.1 | -1.8 ± 0.11 |
| AAAAAGCAAUAUUACGCCAA | -2.26 ± 0.17 | -1.33 ± 0.12 |
| AAAAAGCAAUAUUACGCCGU | -0.957 ± 0.064 | -0.392 ± 0.072 |
| AAAAAGCAAUAUUACGCGGC | -3.53 ± 0.26 | -2.15 ± 0.27 |
| AAAAAGCAAUAUUACGCUAG | -1.41 ± 0.086 | -0.619 ± 0.085 |
| AAAAAGCAAUAUUACGGAGU | -2.15 ± 0.13 | -1.63 ± 0.13 |
| AAAAAGCAAUAUUACGGCCA | -0.43 ± 0.11 | -0.0922 ± 0.15 |
| AAAAAGCAAUAUUACGGUAC | -3.24 ± 0.11 | -1.76 ± 0.094 |
| AAAAAGCAAUAUUACGGUUG | -2.28 ± 0.1 | -1.58 ± 0.13 |
| AAAAAGCAAUAUUACGUAAG | -1.08 ± 0.061 | -0.0629 ± 0.081 |
| AAAAAGCAAUAUUACGUCCC | -0.842 ± 0.15 | 0.362 ± 0.23 |
| AAAAAGCAAUAUUACGUCGC | -2.7 ± 0.26 | -1.34 ± 0.17 |
| AAAAAGCAAUAUUACGUGCA | -0.742 ± 0.056 | -0.201 ± 0.072 |
| AAAAAGCAAUAUUACGUUAU | -2.13 ± 0.071 | -1.55 ± 0.1 |
| AAAAAGCAAUAUUACGUUCU | -0.294 ± 0.066 | -0.0468 ± 0.083 |
| AAAAAGCAAUAUUACGUUUG | -2.65 ± 0.097 | -2.01 ± 0.12 |
| AAACAGCAAUAUUACGACCA | -0.58 ± 0.061 | -0.0342 ± 0.082 |
| AAACAGCAAUAUUACGACUG | -1.64 ± 0.064 | -0.795 ± 0.071 |
| AAACAGCAAUAUUACGAUGG | -3.16 ± 0.15 | -1.27 ± 0.16 |
| AAACAGCAAUAUUACGCAUU | -2.68 ± 0.094 | -1.08 ± 0.094 |
| AAACAGCAAUAUUACGCCUA | -1.13 ± 0.086 | -0.0496 ± 0.075 |

| Sequence | self-splicing fitness (ln) (30 °C) | self-splicing fitness (ln) (37 °C) |
| --- | --- | --- |
| AAACAGCAAUAUUACGCCUC | -2.55 ± 0.15 | -1.49 ± 0.15 |
| AAACAGCAAUAUUACGCCUG | -1.99 ± 0.096 | -0.538 ± 0.1 |
| AAACAGCAAUAUUACGCGGG | -2.69 ± 0.097 | -0.988 ± 0.073 |
| AAACAGCAAUAUUACGCUAA | -1.6 ± 0.084 | -1.58 ± 0.1 |
| AAACAGCAAUAUUACGGACC | -1.94 ± 0.078 | -1.08 ± 0.095 |
| AAACAGCAAUAUUACGGCAA | -0.944 ± 0.096 | -0.612 ± 0.11 |
| AAACAGCAAUAUUACGGCUC | -0.311 ± 0.068 | 0.201 ± 0.095 |
| AAACAGCAAUAUUACGGGAU | -2.65 ± 0.1 | -1.69 ± 0.087 |
| AAACAGCAAUAUUACGGGGA | -2.79 ± 0.1 | -1.63 ± 0.081 |
| AAACAGCAAUAUUACGUAGC | -4.24 ± 0.16 | -2.98 ± 0.18 |
| AAACAGCAAUAUUACGUAGG | -1.85 ± 0.057 | -1.34 ± 0.08 |
| AAACAGCAAUAUUACGUCCC | -1.44 ± 0.17 | 0.29 ± 0.17 |
| AAACAGCAAUAUUACGUCGC | -3.37 ± 0.21 | -2.92 ± 0.23 |
| AAACAGCAAUAUUACGUCUU | -0.362 ± 0.054 | 0.322 ± 0.071 |
| AAACAGCAAUAUUACGUGCU | -3.52 ± 0.2 | -1.91 ± 0.14 |
| AAACAGCAAUAUUACGUGGU | -4.06 ± 0.14 | -2.31 ± 0.15 |
| AAAGAGCAAUAUUACGAAAG | -3.63 ± 0.24 | -3.18 ± 0.24 |
| AAAGAGCAAUAUUACGAACG | -3.87 ± 0.21 | -1.74 ± 0.13 |
| AAAGAGCAAUAUUACGAAGU | -3.28 ± 0.38 | -2.05 ± 0.32 |
| AAAGAGCAAUAUUACGAGAC | -3.51 ± 0.35 | -2.11 ± 0.27 |
| AAAGAGCAAUAUUACGCACA |  | -0.789 ± 0.28 |
| AAAGAGCAAUAUUACGCAGG | -3.47 ± 0.24 | -3.45 ± 0.35 |
| AAAGAGCAAUAUUACGCAUG | -2.55 ± 0.18 | -1.7 ± 0.098 |
| AAAGAGCAAUAUUACGCCGA | -1.81 ± 0.29 | -2.33 ± 0.34 |
| AAAGAGCAAUAUUACGCGAG | -1.87 ± 0.12 | -1.58 ± 0.13 |
| AAAGAGCAAUAUUACGCGCG | -2.69 ± 0.17 | -1.65 ± 0.17 |

| Sequence | self-splicing fitness (ln) (30 °C) | self-splicing fitness (ln) (37 °C) |
| --- | --- | --- |
| AAAGAGCAAUAUUACGCUGG | -4.07 ± 0.32 | -1.89 ± 0.31 |
| AAAGAGCAAUAUUACGGAAG | -3.76 ± 0.21 | -2.62 ± 0.33 |
| AAAGAGCAAUAUUACGGAGA | -2.99 ± 0.22 | -1.98 ± 0.21 |
| AAAGAGCAAUAUUACGGCCG | -1.78 ± 0.18 | -0.0792 ± 0.23 |
| AAAGAGCAAUAUUACGGGAC | -3.56 ± 0.38 | -1.96 ± 0.22 |
| AAAGAGCAAUAUUACGGGAU | -4.18 ± 0.23 | -2.09 ± 0.17 |
| AAAGAGCAAUAUUACGGUCG | -2.47 ± 0.16 | -1.58 ± 0.15 |
| AAAGAGCAAUAUUACGGUGA | -3.87 ± 0.22 | -1.93 ± 0.14 |
| AAAGAGCAAUAUUACGUACG | -3.6 ± 0.44 | -1.9 ± 0.41 |
| AAAGAGCAAUAUUACGUAGC | -4.35 ± 0.27 | -2.45 ± 0.24 |
| AAAGAGCAAUAUUACGUUUC | -3.41 ± 0.18 | -2.55 ± 0.24 |
| AAAUAGCAAUAUUACGAGCA | -1.4 ± 0.11 | -0.127 ± 0.11 |
| AAAUAGCAAUAUUACGAGCG | -1.75 ± 0.17 | -0.208 ± 0.15 |
| AAAUAGCAAUAUUACGAGUU | -1.22 ± 0.11 | -0.896 ± 0.11 |
| AAAUAGCAAUAUUACGCACA | -0.634 ± 0.097 | -0.2 ± 0.14 |
| AAAUAGCAAUAUUACGCCAU | -3.75 ± 0.25 | -2.36 ± 0.24 |
| AAAUAGCAAUAUUACGCCUC | -1.6 ± 0.14 | -0.0982 ± 0.17 |
| AAAUAGCAAUAUUACGCGAG | -1.93 ± 0.17 | -0.639 ± 0.14 |
| AAAUAGCAAUAUUACGCUUG | -1.77 ± 0.087 | -0.8 ± 0.12 |
| AAAUAGCAAUAUUACGGCAC | -0.691 ± 0.1 | 0.0337 ± 0.12 |
| AAAUAGCAAUAUUACGGCAG | -1.67 ± 0.15 | -0.465 ± 0.16 |
| AAAUAGCAAUAUUACGGCGA | -0.48 ± 0.11 | -0.0146 ± 0.12 |
| AAAUAGCAAUAUUACGGCGU | -0.263 ± 0.071 | -0.0261 ± 0.095 |
| AAAUAGCAAUAUUACGGCUU | 0.203 ± 0.1 | 0.139 ± 0.13 |

— the supplement of paper PMC7877785
